Laboratory results taken from paper PMC4144780, “MSRB7 reverses oxidation of GSTF2/3 to confer tolerance of Arabidopsis thaliana to oxidative stress” (Journal of Experimental Botany, 2014).

Key:
[1] = biological target: T1, oxidized His–GSTF2 (A. thaliana, UniProt P46422 1-212, oxidized (positions not stated for this sample)); test: co-IP; recombinant His–flag–MSRB7 and oxidized His–GSTs incubated with rabbit anti-flag antibody in IP buffer (15 mM HEPES pH 7.4, 1 mM EDTA, 1 mM DTT, 10 mM MgCl2, 30 mM KCl) 1 h at room temperature; Protein G–Sepharose; blot with mouse anti-His antibody; details: both partners purified
T1 construct: Glutathione S-transferase F2 (GSTF2), A. thaliana, locus At4g02520; cloned into pET-53-DEST; How it was oxidized is told only for the activity assay (0.5 mM HOCl, 40 min, stopped with 5 mM Met); also called recombinant GSTF2; MetO–GSTF2
T1 sequence (looked up): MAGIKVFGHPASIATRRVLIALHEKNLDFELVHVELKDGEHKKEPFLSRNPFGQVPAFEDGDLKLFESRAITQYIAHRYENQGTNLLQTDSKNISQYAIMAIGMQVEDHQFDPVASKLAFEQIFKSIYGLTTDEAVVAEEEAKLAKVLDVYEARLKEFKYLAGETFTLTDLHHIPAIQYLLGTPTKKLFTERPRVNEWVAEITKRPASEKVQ

[2] = biological target: T2, oxidized His–GSTF3 (A. thaliana, UniProt Q9SLM6 1-212, oxidized (positions not stated for this sample)); test: as above; details: both partners purified
T2 construct: Glutathione S-transferase F3 (GSTF3), A. thaliana, locus At2g02930; cloned into pET-53-DEST; How it was oxidized is told only for the activity assay (0.5 mM HOCl, 40 min, stopped with 5 mM Met); also called recombinant GSTF3; MetO–GSTF3
T2 sequence (looked up): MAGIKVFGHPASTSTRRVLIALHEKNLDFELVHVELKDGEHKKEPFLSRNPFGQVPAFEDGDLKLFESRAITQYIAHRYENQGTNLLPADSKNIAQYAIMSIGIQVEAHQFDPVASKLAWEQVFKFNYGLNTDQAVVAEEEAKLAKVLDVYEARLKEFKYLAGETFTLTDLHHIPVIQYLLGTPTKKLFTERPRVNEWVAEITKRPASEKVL

binding result [1]: binds | binding result [2]: binds
B1: His–flag–MSRB7 (enzyme, A. thaliana, UniProt Q8VY86 1-144, looked up)
chain: MAAMTAAAVPATGSFQKQDEEWRAVLSPEQFRVLRLKGTDKRGKGEFTKKFEEGTYSCAGCGTALYKSTTKFDSGCGWPAFFDAIPGAIKQTPEAGGRRMEITCAVCDGHLGHVFKGEGYSTPTDQRHCVNSVSLKFSSAGSSQ
notes: Methionine sulfoxide reductase B7 (MSRB7), A. thaliana, locus At4g21830; N terminus fused with a flag tag, cloned into pET-53-DEST; also called recombinant MSRB7; not shown: flag, N-terminal, kept
